Results: patent US20140369997A1, “Pharmaceutical composition for a foaming eye drop” (PASE, priority 2011, published 2014)

Assay: Foaming of eye drop solution containing a foaming agent mixed with gas
Format: physicochemical
From the text: The preferred embodiment is a solution containing between 0.25%-5% of hydroxypropyl methylcellulose. This has been proven to produce a foam that is capable of holding enough gas to result in a 90% reduction in volume of the medication distributed in a drop. In other words the foam that is created is 90% gas and 10% liquid. The addition of hydroxypropyl methylcellulose is one of many ways that the pharmaceutical composition of the eye medication can be changed.
Any preferred additive should have properties similar to hydroxypropyl methylcellulose such that a large reduction in volume of liquid from the foamed form to the liquid form is obtained. The additive should be chosen to reduce the risk of eye irritation and to minimize any potential binding of the active ingredient. Hydroxypropyl methylcellulose is especially preferred because it is already known to be a safe ingredient to be applied to the eye as it is currently used in many eye drops to lubricate the eye. It also produces a more viscous solution which increases the retention time in the eye, thus giving the medication more time to be absorbed.

For albumin, the “consistency of foam produced” value (albumin concentration between 1%-25%) was “foam of the desired consistency” and the foaming agent quality (tested as foaming agent) was “excellent foaming agent”.
